This data set in a line: Stability of the kit components after storage. The format is physicochemical. As to conditions: 14 days storage. The text has this: The mechanical properties (storage and loss moduli G′ and G″) are identical at D0, D7 or D21 storage.
The activity of the enzyme AMG was preserved after 14 days storage allowing a long term storage of the kit components.

Consider glucan 1,4 α-glucosidase [AMG], for which the “activity of the enzyme after storage” value is recorded as “preserved”.

The record behind these values is patent US9931433B2, “Time-controlled glucose releasing hydrogels and applications thereof” (Centre National de la Recherche Scientifique (CNRS), priority 2014, dated 2018).
